Source: patent US20240101708A1 (Genentech, published 2024)

T1: recombinant human ZNRF3 extracellular domain (human, UniProt Q9ULT6 56-219)
T1 construct: extracellular domain; also called huZNRF3; human ZNRF3 ECD
T1 sequence (looked up): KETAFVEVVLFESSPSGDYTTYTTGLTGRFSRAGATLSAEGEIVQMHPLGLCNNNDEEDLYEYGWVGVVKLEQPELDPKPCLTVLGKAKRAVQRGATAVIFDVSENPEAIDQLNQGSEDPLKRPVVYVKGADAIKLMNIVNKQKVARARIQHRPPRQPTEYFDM

T2: recombinant human RNF43 extracellular domain (human) (UniProt Q68DV7)
T2 sequence (looked up): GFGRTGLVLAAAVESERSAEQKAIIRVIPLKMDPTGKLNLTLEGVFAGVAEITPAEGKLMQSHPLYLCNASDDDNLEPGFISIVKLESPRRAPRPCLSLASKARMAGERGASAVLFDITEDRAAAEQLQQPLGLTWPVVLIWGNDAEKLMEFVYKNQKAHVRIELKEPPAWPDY


Legend:
RNF128 (GRAIL) = assay: flow cytometry of live HT29 cells with stably integrated, doxycycline-induced gD-tagged ligase, stained with anti-gD antibody and APC; Parental HT29 APC-A+ 0.27
RNF13 = assay: as above
RNF43 = assay: as above
[1] = target: T1, recombinant human ZNRF3 extracellular …; assay: SPR Biacore 8K; antibody captured on Protein A; ZNRF3 ECD analyte; 25 C
Procedure: Antibodies were screened for binding to recombinant human RNF43 and ZNRF3 ECDs using a Biacore® 8 k instrument (GE Life Sciences). Briefly, antibodies diluted to 1 μg/ml in 1×HBSP buffer (Cytiva, BR100368) were captured on a Sensor Chip Protein A (GE Life Sciences) using a flow rate of 10 μl/minute and a contact time of 60 seconds. Binding of recombinant human RNF43 and ZNRF3 extracellular domain to the captured antibodies was analyzed at 25° C. using a single cycle kinetics method with a flow rate of 30 μl/minute, a contact time of 180 seconds and a dissociation time of 600 seconds. The concentration of recombinant human RNF43 and ZNRF3 extracellular domain in the single cycle kinetics were 0, 0.8, 4, 20, and 100 nM. Between cycles, the chip was regenerated using 10 mM Glycine HCl pH 1.5 injected for 30 seconds at 30 μl/minute. Data were evaluated using Biacore 8K Evaluation software (GE Life Sciences). Kinetic constants were obtained using a 1:1 binding model with the parameter RI set to zero. Cell surface ligase antibodies with sub-nanomolar affinities may provide advantages in certain instances, for example, in the degradation efficiency which is correlated with the durability of the ternary complex as shown in FIG. 5D.

[2] = target: T2, recombinant human RNF43 extracellular domain (human); assay: SPR Biacore 8K; antibody captured on Protein A; RNF43 ECD analyte; 25 C

RNF13, sequence (transmembrane E3 ubiquitin ligase with N-terminal gD tag, as listed by the source limits assumed): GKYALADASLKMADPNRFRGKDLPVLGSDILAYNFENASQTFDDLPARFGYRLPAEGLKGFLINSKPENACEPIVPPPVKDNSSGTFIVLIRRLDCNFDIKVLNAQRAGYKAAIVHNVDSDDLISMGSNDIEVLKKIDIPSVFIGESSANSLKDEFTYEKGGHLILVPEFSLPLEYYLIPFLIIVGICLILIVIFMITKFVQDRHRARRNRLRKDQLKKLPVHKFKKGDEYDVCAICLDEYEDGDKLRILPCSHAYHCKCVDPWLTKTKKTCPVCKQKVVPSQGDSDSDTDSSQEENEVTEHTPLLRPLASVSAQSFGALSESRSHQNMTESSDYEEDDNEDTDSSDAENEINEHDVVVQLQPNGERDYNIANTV
RNF128 (GRAIL), sequence (transmembrane E3 ubiquitin ligase with N-terminal gD tag, as listed by the source limits assumed): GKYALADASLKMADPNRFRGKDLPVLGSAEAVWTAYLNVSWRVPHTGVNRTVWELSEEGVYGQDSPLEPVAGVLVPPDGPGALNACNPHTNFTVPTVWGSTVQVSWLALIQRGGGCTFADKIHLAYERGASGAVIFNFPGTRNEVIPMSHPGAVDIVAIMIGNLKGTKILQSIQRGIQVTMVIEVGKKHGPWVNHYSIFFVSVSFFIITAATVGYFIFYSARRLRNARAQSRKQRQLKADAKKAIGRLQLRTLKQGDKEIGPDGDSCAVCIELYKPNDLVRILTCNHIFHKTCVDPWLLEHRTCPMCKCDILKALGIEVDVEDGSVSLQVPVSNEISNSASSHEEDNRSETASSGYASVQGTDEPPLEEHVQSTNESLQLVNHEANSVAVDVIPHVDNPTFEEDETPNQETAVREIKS
RNF43, sequence (transmembrane E3 ubiquitin ligase with N-terminal gD tag, as listed by the source limits assumed): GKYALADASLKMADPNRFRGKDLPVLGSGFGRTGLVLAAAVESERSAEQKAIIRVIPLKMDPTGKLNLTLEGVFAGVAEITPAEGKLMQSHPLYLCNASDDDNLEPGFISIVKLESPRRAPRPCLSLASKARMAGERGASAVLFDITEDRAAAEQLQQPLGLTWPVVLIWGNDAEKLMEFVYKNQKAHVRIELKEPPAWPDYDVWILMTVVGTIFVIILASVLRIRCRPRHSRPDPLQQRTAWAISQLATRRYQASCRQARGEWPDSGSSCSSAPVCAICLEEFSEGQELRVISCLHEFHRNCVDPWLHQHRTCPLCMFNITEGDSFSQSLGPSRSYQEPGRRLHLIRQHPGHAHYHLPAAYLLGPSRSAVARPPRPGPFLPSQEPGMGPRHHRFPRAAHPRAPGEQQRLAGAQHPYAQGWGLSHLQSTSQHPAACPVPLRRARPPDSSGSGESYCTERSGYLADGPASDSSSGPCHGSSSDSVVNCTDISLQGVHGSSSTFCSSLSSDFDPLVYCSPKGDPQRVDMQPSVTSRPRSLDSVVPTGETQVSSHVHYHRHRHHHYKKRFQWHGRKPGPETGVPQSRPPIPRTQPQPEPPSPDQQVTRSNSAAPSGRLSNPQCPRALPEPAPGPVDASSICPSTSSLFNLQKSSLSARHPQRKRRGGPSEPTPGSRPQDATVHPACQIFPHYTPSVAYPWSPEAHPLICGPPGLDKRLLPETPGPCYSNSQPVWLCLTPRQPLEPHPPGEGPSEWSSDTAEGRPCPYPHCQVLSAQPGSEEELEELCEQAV

Molecule	Kd [1] [nM]	also measured
anti-gD antibody		APC-A+ (share of cells in the positive gate; percentage by paragraph 258) (RNF128 (GRAIL)): 35; APC-A+ (share of cells in the positive gate; percentage by paragraph 258) (RNF13): 0.79; APC-A+ (share of cells in the positive gate; percentage by paragraph 258) (RNF43): 63
ZNRF3-244 (antibody, V domains shown, Rat clone; VH/VL only) VH: EVQLVESGGGLVQPGKSLKLSCSASGFTFSSYGMHWIRQTPGKGLDWVAYISTNSGTVYADAVKGRFTISRDNAKNTLYLQLNSLQSEDTAIYYCARGYNYPGAYWGQGTLVTVSS VL: DIQVTQSPSSLLASLGERVTITCQTSQSISNNLNWYQQKPGQAPMLLIYYATSLQTGMPSRFSGQYSGRSFTLTITSLEPEDIANYFCLQHYNPPYTFGAGTKLELK	6.85	
ZNRF3-329 (antibody, V domains shown, Rat clone; VH/VL only) VH: EVQLVESGGGLVQPGKSLKLSCSASGFTFSSHGMHWIRQAPGKGLDWVAYISNNSGTIYSAAVRGRFTISRDNSKNTLFLQLNSLKSEDTAIYYCARGYNYPGAYWGQGTLVTVSS VL: DIQVTQSPSSLLASLGERVTITCQTSQSIRNYLNWYQQKPGQVPILLIYYATSLQTDMPSRFSGQYSGRSFTLTITSLEPEDIANYFCLQHYSVPYTFGAGTKLELK	0.283	
ZNRF3-332 (antibody, V domains shown, Rabbit clone; VH/VL only) VH: QSLEESGGGLVQPEGSLTLTCTASGIDFSTRNYMCWVRQAPGKGLEWVGCIYTSSGGTYYASWVNGRFTISKTSSTTVTLRMTSLTAADTATYFCARGGYVGYGYATYFNLWGPGTLVAVSS VL: DVVMTQTPASVSEPVGGTVTIKCQASQSISSYLSWYQQKPGQPPKLLIYYVSNLESGVPSRFKGSGSGTEFTLTISDLECADAATYYCQNYYSSSSGWAFGGGTEVVVK	1.6	
RNF43-19 (antibody, V domains shown) VH: QQQLEESGGGLVKPGGTLTLTCKASGIDFSTYYYMCWVRQAPGKGLEWIACIYTGDGNTYYASWAKGRFTISKTSSTTVTLQMTSLTAADTATYFCARDLAGSSYYSGYYFKLWGPGTLVTVSS VL: DVVMTQTPASVSEPVGGTVTIKCQASQSIGSNLAWYQQKPGQPPKLLIYSVSNLASGVSSRFKGSRSGTEYTLTISDLECADAATYYSQSGYYGSTYAFGGGTEVVVK		Kd [2]: 34.2 nM
ZNRF3-322 (antibody, V domains shown, Rat clone; VH/VL only) VH: EVHLVESGGGLVQPGRSLTLSCVASGFTFNNWWMTWIRQAPGKGLEWVASISHTGGSTSYPDSVKGRFTISRDNAKSTLYLQMTSLRSDDTATYYCTRWGPILRGFDYWGQGVMVTVSS VL: DVVLTQTPPTLSATIGQSVSISCRSSQSLLHINGNTYVNWLVQRPGQPPQLLFYLVSRLESGVPNRFSGSGSGTDFTLKISGVEAEDLGVYYCVQSTHAPPTFGGGTKLELK		binding result [1]: no binding
ZNRF3-237 (antibody, V domains shown, Rat clone; VH/VL only) VH: QIQLVQSGPELKKPGESVKISCKASGYTFTDYAMHWVKQVPGKGLKWMGWINTYTGKPTYADDFKGRFVFSLEASASTVNLQISNLKNEDTANVFCARGGLLSRGWFAYWGQGTLVTVSS VL: DIVMTQTPVSLSVSLGGQVSISCRSSQSFVHSDGNSYLSWYLQKPGQSPQLLIYEVSNRLSGVPDRFSGSGSGTDFTLKISRVEHDDLGVYYCGQASKIPLTFGSGTKLEIK	5.3	
ZNRF3-222 (antibody, V domains shown, Rat clone; VH/VL only) VH: EVQLVESGGGLVQPGRSLKLSCAVSGFTFSNYGMAWVRQTPTKGLEWVATITYDGSTTYYRDSVKGRFTISRDNAKSALSLQMDSLRSEDTATYHCARQGLGYPFVYWGQGTLVTVSS VL: DVVMTQTPVSLPVSLGGQASISCRTSQSLVHSNGNTYLHWYLQKPGQSPQLLIYRVSNRFSGVPDRFSGSGSGTDFTLKISRIEPEDLGDYYCLQSTHFPYTFGAGTKLELK		binding result [1]: no binding
ZNRF3-255 (antibody, V domains shown, Rat clone; VH/VL only) VH: EVQLVESGGGLVQPGRSLKLSCAASGFTFSSFTMAWVRQAPKKGLEWVASISSGGGGTYYPDSVKGRFTISRDNAKSTLYLQMDSLRSEDTASYYCATGGFAYWGQGTLVIVSS VL: DIQMTQSPSSLPASLGDRVTITCRASQDIGSYLRWFQQKPGKSPRLMIYGATSLANGVPSRFSGSRSGSDYSLTINNLESEDMAIYYCLQHNEFPYTFGTGTKLELK	0.26	
ZNRF3-331 (antibody, V domains shown, Rabbit clone; VH/VL only) VH: QSVEESGGRLVTPGTPLTLTCTVSGFSLSSYAMGWVRQAPGKGLEWIGIIYAGDTTYYASWAKGRFTISETSTTVDLKITSPTTEDTATYFCARKSDDDSDSYLLWGPGTLVTVSS VL: AYDMTQTPASVEVAVGGTVTIKCQASQSISSYLNWYQQKRGQPPKLLIYDASTLASGVPSRFSGSGSGTEFTLTISGVQCDDAATYYCQQGWSSTNIDNIFGGGTEVVVK	0.2	
